In US20020193570A1:
Values belong to the substance of their own block, whether it stands above or below them.

What was measured:
[1] = biological target: IL-12 receptor on human PBMC (human) (UniProt P42701); test: cell-based or functional assay
[2] = biological target: KS antigen recognized by the KS-1/4 antibody (plate-coated / as antigen) (UniProt P16422); test: ELISA, plates coated with KS antigen, detection with anti-human IL-12 p40 antibody
[3] = biological target: IL-12 receptor on mouse effector cells (mouse) (UniProt Q60837); test: cell-based or functional assay
IL-12 receptor on mouse effector cells (mouse), sequence (Q60837 20-738, chain 1 of 2): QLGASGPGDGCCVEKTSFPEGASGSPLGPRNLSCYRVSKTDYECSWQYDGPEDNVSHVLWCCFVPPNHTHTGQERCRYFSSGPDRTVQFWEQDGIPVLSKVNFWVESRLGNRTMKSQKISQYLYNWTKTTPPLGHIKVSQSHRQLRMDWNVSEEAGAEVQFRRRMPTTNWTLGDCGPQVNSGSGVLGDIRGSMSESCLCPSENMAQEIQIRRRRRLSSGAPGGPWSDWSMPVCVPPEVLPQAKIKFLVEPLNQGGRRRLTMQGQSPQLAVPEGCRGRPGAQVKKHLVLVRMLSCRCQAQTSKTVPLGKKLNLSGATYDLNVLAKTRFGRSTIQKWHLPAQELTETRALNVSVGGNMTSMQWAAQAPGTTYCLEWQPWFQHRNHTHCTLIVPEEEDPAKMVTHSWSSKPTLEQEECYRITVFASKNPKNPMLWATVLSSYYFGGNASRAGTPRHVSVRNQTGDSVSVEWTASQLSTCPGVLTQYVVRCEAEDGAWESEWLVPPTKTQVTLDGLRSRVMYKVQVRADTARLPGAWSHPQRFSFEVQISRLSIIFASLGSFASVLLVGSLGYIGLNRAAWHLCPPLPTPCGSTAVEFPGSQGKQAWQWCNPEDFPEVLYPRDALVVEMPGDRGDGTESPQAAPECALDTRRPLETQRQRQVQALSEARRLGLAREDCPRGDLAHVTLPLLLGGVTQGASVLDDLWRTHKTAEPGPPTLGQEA
IL-12 receptor on mouse effector cells (mouse), sequence (P97378 24-874, chain 2 of 2, further chain): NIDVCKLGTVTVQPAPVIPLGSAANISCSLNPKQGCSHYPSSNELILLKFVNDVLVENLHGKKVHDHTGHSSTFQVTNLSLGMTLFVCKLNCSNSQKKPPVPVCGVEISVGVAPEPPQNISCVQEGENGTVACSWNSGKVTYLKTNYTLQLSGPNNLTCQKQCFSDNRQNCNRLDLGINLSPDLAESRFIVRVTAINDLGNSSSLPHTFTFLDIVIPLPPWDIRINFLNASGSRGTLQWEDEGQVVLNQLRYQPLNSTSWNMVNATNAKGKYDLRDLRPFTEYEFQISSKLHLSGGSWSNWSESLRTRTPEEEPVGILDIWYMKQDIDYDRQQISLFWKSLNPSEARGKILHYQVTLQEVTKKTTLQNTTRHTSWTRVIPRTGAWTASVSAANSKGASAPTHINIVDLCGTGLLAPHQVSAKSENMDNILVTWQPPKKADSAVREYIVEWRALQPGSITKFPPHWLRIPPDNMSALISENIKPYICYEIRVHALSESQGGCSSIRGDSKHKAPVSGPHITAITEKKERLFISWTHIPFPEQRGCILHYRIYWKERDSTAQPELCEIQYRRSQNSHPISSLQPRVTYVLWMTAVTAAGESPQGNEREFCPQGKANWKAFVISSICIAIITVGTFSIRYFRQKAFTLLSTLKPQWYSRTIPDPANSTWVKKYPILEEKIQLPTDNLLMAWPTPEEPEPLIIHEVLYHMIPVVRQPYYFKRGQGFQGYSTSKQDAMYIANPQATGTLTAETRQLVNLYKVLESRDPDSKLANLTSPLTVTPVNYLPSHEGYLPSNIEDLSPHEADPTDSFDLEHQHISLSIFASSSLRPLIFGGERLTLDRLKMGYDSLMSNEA

IL-12 receptor on human PBMC (human), sequence (Q99665 24-862, chain 2 of 2, other chains not shown): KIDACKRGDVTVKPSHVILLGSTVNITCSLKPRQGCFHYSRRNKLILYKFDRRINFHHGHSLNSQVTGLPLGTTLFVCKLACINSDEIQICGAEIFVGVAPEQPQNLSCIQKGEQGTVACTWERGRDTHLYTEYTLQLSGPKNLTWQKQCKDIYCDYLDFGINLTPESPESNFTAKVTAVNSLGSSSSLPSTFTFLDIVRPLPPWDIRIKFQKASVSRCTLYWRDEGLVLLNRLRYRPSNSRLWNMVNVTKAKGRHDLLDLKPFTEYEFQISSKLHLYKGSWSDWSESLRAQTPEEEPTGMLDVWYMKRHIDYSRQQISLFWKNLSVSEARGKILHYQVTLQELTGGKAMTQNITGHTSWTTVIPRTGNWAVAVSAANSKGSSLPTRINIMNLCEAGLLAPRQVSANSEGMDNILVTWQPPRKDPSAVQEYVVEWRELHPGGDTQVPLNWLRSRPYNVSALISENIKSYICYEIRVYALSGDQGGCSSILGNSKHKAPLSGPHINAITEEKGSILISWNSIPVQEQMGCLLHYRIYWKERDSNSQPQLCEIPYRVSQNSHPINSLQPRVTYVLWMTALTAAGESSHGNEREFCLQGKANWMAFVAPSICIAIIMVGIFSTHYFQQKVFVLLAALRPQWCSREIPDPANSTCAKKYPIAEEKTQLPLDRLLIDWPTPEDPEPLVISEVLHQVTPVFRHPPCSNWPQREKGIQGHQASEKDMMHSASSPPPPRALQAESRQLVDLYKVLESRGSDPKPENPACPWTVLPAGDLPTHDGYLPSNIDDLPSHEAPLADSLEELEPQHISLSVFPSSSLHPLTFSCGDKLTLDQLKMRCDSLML
KS antigen recognized by the KS-1/4 antibody (plate-coated / as antigen), sequence (P16422 24-265 limits assumed): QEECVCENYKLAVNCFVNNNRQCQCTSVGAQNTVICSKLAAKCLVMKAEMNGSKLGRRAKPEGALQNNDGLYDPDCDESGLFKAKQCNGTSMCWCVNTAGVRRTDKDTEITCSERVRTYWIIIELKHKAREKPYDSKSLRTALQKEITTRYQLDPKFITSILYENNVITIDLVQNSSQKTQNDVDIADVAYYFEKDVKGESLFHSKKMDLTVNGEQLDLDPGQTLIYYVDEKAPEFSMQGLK

induction of IFN-γ secretion from PHA-activated PBMC (fold less active than the IL-12 standard) [1]: 6
Substance: Hu-KS-IL-12 fusion protein with both human IL-12 chains (from UniProt P01857 1-330; P29459 23-219; P29460 23-328) (antibody)

intensity of binding against the whole KS-1/4 antibody (fold lower than whole KS-1/4 antibody) [2]: 3 | induction of IFN-γ secretion from mouse cells (fold less than the mouse IL-12 control) [3]: 50
Substance: single-chain fusion protein with a mouse p35 subunit and a human p40 subunit (KS-1/4 scFv-mouse p35/human p40) (from UniProt P43431 23-215; P29460 23-328)

induction of IFN-γ secretion from mouse effector cells pre-stimulated with Concanavalin A ([3]; scale: fold less active than the mouse IL-12 standard): 50 | induction of IFN-γ secretion from PHA-activated PBMC ([1]; scale: fold less active than Hu-KS-IL-12 with human IL-12 chains): 4
Substance: Hu-KS-1/4-mouse p35 human p40 fusion protein (from UniProt P01857 1-330; P43431 23-215; P29460 23-328) (antibody)

intensity of binding against the whole KS-1/4 antibody (fold lower than whole KS-1/4 antibody) [2]: 3
Substance: single-chain fusion protein with human p35 and p40 subunits (KS-1/4 scFv-human IL-12) (from UniProt P29459 23-219; P29460 23-328)
